T1: full-length CD248 transiently expressed on cells (UniProt Q9HCU0 18-757)
T1 sequence: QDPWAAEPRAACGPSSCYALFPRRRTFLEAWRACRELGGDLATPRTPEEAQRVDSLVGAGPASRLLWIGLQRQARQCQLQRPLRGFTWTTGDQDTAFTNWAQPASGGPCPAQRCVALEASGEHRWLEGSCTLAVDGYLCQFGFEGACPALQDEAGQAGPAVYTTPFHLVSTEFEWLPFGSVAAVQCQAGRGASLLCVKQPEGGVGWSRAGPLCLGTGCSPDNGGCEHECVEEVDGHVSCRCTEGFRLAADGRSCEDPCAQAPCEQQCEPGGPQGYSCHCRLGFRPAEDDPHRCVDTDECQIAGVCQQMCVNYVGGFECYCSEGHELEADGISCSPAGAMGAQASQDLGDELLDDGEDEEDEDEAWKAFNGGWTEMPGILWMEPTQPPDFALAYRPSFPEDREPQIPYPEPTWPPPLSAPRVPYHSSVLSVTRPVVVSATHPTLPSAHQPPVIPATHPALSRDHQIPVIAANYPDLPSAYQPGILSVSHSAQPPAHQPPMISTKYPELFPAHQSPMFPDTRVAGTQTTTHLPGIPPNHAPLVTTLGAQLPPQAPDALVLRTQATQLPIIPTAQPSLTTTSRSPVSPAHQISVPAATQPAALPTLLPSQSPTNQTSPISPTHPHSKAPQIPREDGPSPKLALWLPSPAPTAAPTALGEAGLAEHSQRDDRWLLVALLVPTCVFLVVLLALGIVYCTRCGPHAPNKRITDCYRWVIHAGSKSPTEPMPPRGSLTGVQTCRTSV

T2: gD-GPI CD248 transiently expressed on cells (UniProt Q9HCU0 18-687, glycosylphosphatidylinositol (GPI) lipid anchor)
T2 sequence: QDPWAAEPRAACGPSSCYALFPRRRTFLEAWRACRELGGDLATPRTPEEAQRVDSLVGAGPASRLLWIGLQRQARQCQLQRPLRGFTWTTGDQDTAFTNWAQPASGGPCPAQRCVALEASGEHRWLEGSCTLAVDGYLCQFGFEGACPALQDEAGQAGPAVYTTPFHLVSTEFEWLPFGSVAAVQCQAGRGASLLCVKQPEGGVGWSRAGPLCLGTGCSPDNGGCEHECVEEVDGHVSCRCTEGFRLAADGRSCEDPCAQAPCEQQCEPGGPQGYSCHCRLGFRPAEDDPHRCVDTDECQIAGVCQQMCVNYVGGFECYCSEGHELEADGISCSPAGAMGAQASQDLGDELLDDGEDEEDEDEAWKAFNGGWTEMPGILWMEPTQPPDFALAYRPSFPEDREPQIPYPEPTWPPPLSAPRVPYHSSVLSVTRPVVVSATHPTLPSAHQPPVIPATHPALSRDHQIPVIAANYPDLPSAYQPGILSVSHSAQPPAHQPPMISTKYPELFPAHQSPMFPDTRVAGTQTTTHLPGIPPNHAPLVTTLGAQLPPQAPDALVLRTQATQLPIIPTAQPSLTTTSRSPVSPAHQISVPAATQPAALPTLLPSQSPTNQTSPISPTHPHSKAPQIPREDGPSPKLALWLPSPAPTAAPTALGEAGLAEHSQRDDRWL


Columns and labels:
Assay in all cases: fluorescence microscopy of rEV binding to transfected cells
[1] = molecular target: gD-GPI CD248 transiently expressed on cells (UniProt Q9HCU0)
[2] = molecular target: T1, full-length CD248 transiently expressed …
[3] = molecular target: T2, gD-GPI CD248 transiently expressed on …

| fold binding over cells transfected with an empty vector control [1] [fold] | fold binding over cells transfected with an empty vector control [2] [fold] | fold binding over cells transfected with an empty vector control [3] [fold] | Molecule |
| --- | --- | --- | --- |
| > 10 |  |  | gD-GPI–tagged LRRC15 ectodomain displayed on rEVs (from UniProt Q8TF66 22-538) (domain or fragment) |
|  | > 10 | > 10 | full-length LRRC15 displayed on rEVs (receptor) YHGCPSECTCSRASQVECTGARIVAVPTPLPWNAMSLQILNTHITELNESPFLNISALIALRIEKNELSRITPGAFRNLGSLRYLSLANNKLQVLPIGLFQGLDSLESLLLSSNQLLQIQPAHFSQCSNLKELQLHGNHLEYIPDGAFDHLVGLTKLNLGKNSLTHISPRVFQHLGNLQVLRLYENRLTDIPMGTFDGLVNLQELALQQNQIGLLSPGLFHNNHNLQRLYLSNNHISQLPPSVFMQLPQLNRLTLFGNSLKELSPGIFGPMPNLRELWLYDNHISSLPDNVFSNLRQLQVLILSRNQISFISPGAFNGLTELRELSLHTNALQDLDGNVFRMLANLQNISLQNNRLRQLPGNIFANVNGLMAIQLQNNQLENLPLGIFDHLGKLCELRLYDNPWRCDSDILPLRNWLLLNQPRLGTDTVPVCFSPANVRGQSLIIINVNVAVPSVHVPEVPSYPETPWYPDTPSYPDTTSVSSTTELTSPVEDYTDLTTIQVTDDRSVWGMTQAQSGLAIAAIVIGIVALACSLAACVGCCCCKKRSQAVLMQMKAPNEC |
|  | > 10 |  | gD-GPI–tagged LRRC15 ectodomain displayed on rEVs (domain or fragment, glycosylphosphatidylinositol (GPI) lipid anchor) YHGCPSECTCSRASQVECTGARIVAVPTPLPWNAMSLQILNTHITELNESPFLNISALIALRIEKNELSRITPGAFRNLGSLRYLSLANNKLQVLPIGLFQGLDSLESLLLSSNQLLQIQPAHFSQCSNLKELQLHGNHLEYIPDGAFDHLVGLTKLNLGKNSLTHISPRVFQHLGNLQVLRLYENRLTDIPMGTFDGLVNLQELALQQNQIGLLSPGLFHNNHNLQRLYLSNNHISQLPPSVFMQLPQLNRLTLFGNSLKELSPGIFGPMPNLRELWLYDNHISSLPDNVFSNLRQLQVLILSRNQISFISPGAFNGLTELRELSLHTNALQDLDGNVFRMLANLQNISLQNNRLRQLPGNIFANVNGLMAIQLQNNQLENLPLGIFDHLGKLCELRLYDNPWRCDSDILPLRNWLLLNQPRLGTDTVPVCFSPANVRGQSLIIINVNVAVPSVHVPEVPSYPETPWYPDTPSYPDTTSVSSTTELTSPVEDYTDLTTIQVTDDRSVWGMTQAQSG |
